Consider six molecules from patent US20260001928A1 (CORTERIA PHARMACEUTICALS, priority 2022, published 2026).

*1 amine or outer side, *2 acyl side, *3 side chain or, on linkers, in order; H or OH if unused. Side-chain parts run from the residue outwards. [ ]: non-standard residue; d: D form. The star is where a group is joined. C16 diacid = O=C(O)CCCCCCCCCCCCCCC(=O)*; γGlu = O=C(O)[C@H](CCC(=O)[*:2])N[*:1]; Api = NC1(C(=O)O)CCNCC1; Aib = CC(C)(N)C(=O)O; Propionyl = CCC(=O)*

Experiment [1] has as its target human corticotropin-releasing factor 2a (CRF2a receptor) (human), Q13324. Nature of the experiment: cell-based or functional assay.
The target in experiment [2] is T1, CRF1R receptor (UniProt P34998 24-415, limits assumed).
T1 sequence (looked up): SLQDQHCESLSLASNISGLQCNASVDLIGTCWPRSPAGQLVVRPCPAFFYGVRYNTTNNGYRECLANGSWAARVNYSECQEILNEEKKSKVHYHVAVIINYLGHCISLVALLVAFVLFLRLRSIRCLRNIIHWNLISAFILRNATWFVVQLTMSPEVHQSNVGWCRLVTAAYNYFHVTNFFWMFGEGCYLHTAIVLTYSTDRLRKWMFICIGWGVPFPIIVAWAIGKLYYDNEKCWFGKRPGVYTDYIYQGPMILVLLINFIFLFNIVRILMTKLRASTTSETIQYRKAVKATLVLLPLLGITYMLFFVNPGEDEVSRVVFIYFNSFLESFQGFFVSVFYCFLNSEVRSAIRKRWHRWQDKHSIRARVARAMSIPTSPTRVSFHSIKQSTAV
Nature of the experiment: cell-based or functional assay.

human corticotropin-releasing factor 2a (CRF2a receptor) (human), Q13324, sequence (Q13324 20-411): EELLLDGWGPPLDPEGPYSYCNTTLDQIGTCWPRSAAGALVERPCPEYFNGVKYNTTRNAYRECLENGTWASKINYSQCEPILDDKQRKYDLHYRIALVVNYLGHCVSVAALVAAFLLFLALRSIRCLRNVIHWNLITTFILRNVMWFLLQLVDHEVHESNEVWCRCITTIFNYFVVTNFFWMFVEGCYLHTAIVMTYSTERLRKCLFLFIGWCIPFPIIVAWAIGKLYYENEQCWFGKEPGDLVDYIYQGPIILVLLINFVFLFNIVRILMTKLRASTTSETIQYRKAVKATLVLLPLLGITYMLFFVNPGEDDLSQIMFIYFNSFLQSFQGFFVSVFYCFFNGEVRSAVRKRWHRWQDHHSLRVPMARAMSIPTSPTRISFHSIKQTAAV

B1: SEQ ID NO 78 (peptide)
peptide: Propionyl-VLSLD[dV]PIKLK([γGlu-C16 diacid])KILLEQEKQKKQREQAETN[Aib]QILAQV-NH2
SMILES: CCC(=O)N[C@H](C(=O)N[C@@H](CC(C)C)C(=O)N[C@@H](CO)C(=O)N[C@@H](CC(C)C)C(=O)N[C@@H](CC(=O)O)C(=O)N[C@@H](C(=O)N1CCC[C@H]1C(=O)N[C@H](C(=O)N[C@@H](CCCCN)C(=O)N[C@@H](CC(C)C)C(=O)N[C@@H](CCCCNC(=O)CC[C@H](NC(=O)CCCCCCCCCCCCCCC(=O)O)C(=O)O)C(=O)N[C@@H](CCCCN)C(=O)N[C@H](C(=O)N[C@@H](CC(C)C)C(=O)N[C@@H](CC(C)C)C(=O)N[C@@H](CCC(=O)O)C(=O)N[C@@H](CCC(N)=O)C(=O)N[C@@H](CCC(=O)O)C(=O)N[C@@H](CCCCN)C(=O)N[C@@H](CCC(N)=O)C(=O)N[C@@H](CCCCN)C(=O)N[C@@H](CCCCN)C(=O)N[C@@H](CCC(N)=O)C(=O)N[C@@H](CCCNC(=N)N)C(=O)N[C@@H](CCC(=O)O)C(=O)N[C@@H](CCC(N)=O)C(=O)N[C@@H](C)C(=O)N[C@@H](CCC(=O)O)C(=O)N[C@H](C(=O)N[C@@H](CC(N)=O)C(=O)NC(C)(C)C(=O)N[C@@H](CCC(N)=O)C(=O)N[C@H](C(=O)N[C@@H](CC(C)C)C(=O)N[C@@H](C)C(=O)N[C@@H](CCC(N)=O)C(=O)N[C@H](C(N)=O)C(C)C)[C@@H](C)CC)[C@@H](C)O)[C@@H](C)CC)[C@@H](C)CC)C(C)C)C(C)C
With B1, the EC50 [nM] (cAMP) in experiment [1] is 0.73 nM. For the same molecule, the “Emax (% I)” value in experiment [2] stood at 7%.

B2: SEQ ID NO 57 (peptide)
peptide: Ac-IVLSLD[dV]PIKLK([γGlu-C16 diacid])KILLEQEKQKKQREQAETN[Api]QILAQV-NH2
SMILES: CC[C@H](C)[C@H](NC(C)=O)C(=O)N[C@H](C(=O)N[C@@H](CC(C)C)C(=O)N[C@@H](CO)C(=O)N[C@@H](CC(C)C)C(=O)N[C@@H](CC(=O)O)C(=O)N[C@@H](C(=O)N1CCC[C@H]1C(=O)N[C@H](C(=O)N[C@@H](CCCCN)C(=O)N[C@@H](CC(C)C)C(=O)N[C@@H](CCCCNC(=O)CC[C@H](NC(=O)CCCCCCCCCCCCCCC(=O)O)C(=O)O)C(=O)N[C@@H](CCCCN)C(=O)N[C@H](C(=O)N[C@@H](CC(C)C)C(=O)N[C@@H](CC(C)C)C(=O)N[C@@H](CCC(=O)O)C(=O)N[C@@H](CCC(N)=O)C(=O)N[C@@H](CCC(=O)O)C(=O)N[C@@H](CCCCN)C(=O)N[C@@H](CCC(N)=O)C(=O)N[C@@H](CCCCN)C(=O)N[C@@H](CCCCN)C(=O)N[C@@H](CCC(N)=O)C(=O)N[C@@H](CCCNC(=N)N)C(=O)N[C@@H](CCC(=O)O)C(=O)N[C@@H](CCC(N)=O)C(=O)N[C@@H](C)C(=O)N[C@@H](CCC(=O)O)C(=O)N[C@H](C(=O)N[C@@H](CC(N)=O)C(=O)NC1(C(=O)N[C@@H](CCC(N)=O)C(=O)N[C@H](C(=O)N[C@@H](CC(C)C)C(=O)N[C@@H](C)C(=O)N[C@@H](CCC(N)=O)C(=O)N[C@H](C(N)=O)C(C)C)[C@@H](C)CC)CCNCC1)[C@@H](C)O)[C@@H](C)CC)[C@@H](C)CC)C(C)C)C(C)C
As for B2, in experiment [1], the EC50 [nM] (cAMP) is 0.39 nM. Also, the “Emax (% I)” value in experiment [2] came to 24%.

B3: SEQ ID NO 56 (peptide)
peptide: Ac-IVLSLD[dV]PIKLK([γGlu-C16 diacid])KILLEQEKQKKQREQAETNEQILAQV-NH2
SMILES: CC[C@H](C)[C@H](NC(C)=O)C(=O)N[C@H](C(=O)N[C@@H](CC(C)C)C(=O)N[C@@H](CO)C(=O)N[C@@H](CC(C)C)C(=O)N[C@@H](CC(=O)O)C(=O)N[C@@H](C(=O)N1CCC[C@H]1C(=O)N[C@H](C(=O)N[C@@H](CCCCN)C(=O)N[C@@H](CC(C)C)C(=O)N[C@@H](CCCCNC(=O)CC[C@H](NC(=O)CCCCCCCCCCCCCCC(=O)O)C(=O)O)C(=O)N[C@@H](CCCCN)C(=O)N[C@H](C(=O)N[C@@H](CC(C)C)C(=O)N[C@@H](CC(C)C)C(=O)N[C@@H](CCC(=O)O)C(=O)N[C@@H](CCC(N)=O)C(=O)N[C@@H](CCC(=O)O)C(=O)N[C@@H](CCCCN)C(=O)N[C@@H](CCC(N)=O)C(=O)N[C@@H](CCCCN)C(=O)N[C@@H](CCCCN)C(=O)N[C@@H](CCC(N)=O)C(=O)N[C@@H](CCCNC(=N)N)C(=O)N[C@@H](CCC(=O)O)C(=O)N[C@@H](CCC(N)=O)C(=O)N[C@@H](C)C(=O)N[C@@H](CCC(=O)O)C(=O)N[C@H](C(=O)N[C@@H](CC(N)=O)C(=O)N[C@@H](CCC(=O)O)C(=O)N[C@@H](CCC(N)=O)C(=O)N[C@H](C(=O)N[C@@H](CC(C)C)C(=O)N[C@@H](C)C(=O)N[C@@H](CCC(N)=O)C(=O)N[C@H](C(N)=O)C(C)C)[C@@H](C)CC)[C@@H](C)O)[C@@H](C)CC)[C@@H](C)CC)C(C)C)C(C)C
The molecule B3 showed an EC50 [nM] (cAMP) in experiment [1] of 0.3 nM. Further, the “Emax (% I)” value in experiment [2] turned out to be 3%.

B4: SEQ ID NO 17 (peptide)
peptide: Ac-IVLSLD[dV]PIKLK([γGlu-C16 diacid])QILLKQERQKKQREQAEKNEQILEQV-NH2
SMILES: CC[C@H](C)[C@H](NC(C)=O)C(=O)N[C@H](C(=O)N[C@@H](CC(C)C)C(=O)N[C@@H](CO)C(=O)N[C@@H](CC(C)C)C(=O)N[C@@H](CC(=O)O)C(=O)N[C@@H](C(=O)N1CCC[C@H]1C(=O)N[C@H](C(=O)N[C@@H](CCCCN)C(=O)N[C@@H](CC(C)C)C(=O)N[C@@H](CCCCNC(=O)CC[C@H](NC(=O)CCCCCCCCCCCCCCC(=O)O)C(=O)O)C(=O)N[C@@H](CCC(N)=O)C(=O)N[C@H](C(=O)N[C@@H](CC(C)C)C(=O)N[C@@H](CC(C)C)C(=O)N[C@@H](CCCCN)C(=O)N[C@@H](CCC(N)=O)C(=O)N[C@@H](CCC(=O)O)C(=O)N[C@@H](CCCNC(=N)N)C(=O)N[C@@H](CCC(N)=O)C(=O)N[C@@H](CCCCN)C(=O)N[C@@H](CCCCN)C(=O)N[C@@H](CCC(N)=O)C(=O)N[C@@H](CCCNC(=N)N)C(=O)N[C@@H](CCC(=O)O)C(=O)N[C@@H](CCC(N)=O)C(=O)N[C@@H](C)C(=O)N[C@@H](CCC(=O)O)C(=O)N[C@@H](CCCCN)C(=O)N[C@@H](CC(N)=O)C(=O)N[C@@H](CCC(=O)O)C(=O)N[C@@H](CCC(N)=O)C(=O)N[C@H](C(=O)N[C@@H](CC(C)C)C(=O)N[C@@H](CCC(=O)O)C(=O)N[C@@H](CCC(N)=O)C(=O)N[C@H](C(N)=O)C(C)C)[C@@H](C)CC)[C@@H](C)CC)[C@@H](C)CC)C(C)C)C(C)C
As for B4, the EC50 [nM] (cAMP) in experiment [1] was found to be 0.21 nM. In addition, the “Emax (% I)” value in experiment [2] turned out to be 12%.

B5: SEQ ID NO 21 (peptide)
peptide: Ac-IVLSLD[dV]PIKLK([γGlu-C16 diacid])KILLKQERQKKQREQAEKN[Aib]QILEQV-NH2
SMILES: CC[C@H](C)[C@H](NC(C)=O)C(=O)N[C@H](C(=O)N[C@@H](CC(C)C)C(=O)N[C@@H](CO)C(=O)N[C@@H](CC(C)C)C(=O)N[C@@H](CC(=O)O)C(=O)N[C@@H](C(=O)N1CCC[C@H]1C(=O)N[C@H](C(=O)N[C@@H](CCCCN)C(=O)N[C@@H](CC(C)C)C(=O)N[C@@H](CCCCNC(=O)CC[C@H](NC(=O)CCCCCCCCCCCCCCC(=O)O)C(=O)O)C(=O)N[C@@H](CCCCN)C(=O)N[C@H](C(=O)N[C@@H](CC(C)C)C(=O)N[C@@H](CC(C)C)C(=O)N[C@@H](CCCCN)C(=O)N[C@@H](CCC(N)=O)C(=O)N[C@@H](CCC(=O)O)C(=O)N[C@@H](CCCNC(=N)N)C(=O)N[C@@H](CCC(N)=O)C(=O)N[C@@H](CCCCN)C(=O)N[C@@H](CCCCN)C(=O)N[C@@H](CCC(N)=O)C(=O)N[C@@H](CCCNC(=N)N)C(=O)N[C@@H](CCC(=O)O)C(=O)N[C@@H](CCC(N)=O)C(=O)N[C@@H](C)C(=O)N[C@@H](CCC(=O)O)C(=O)N[C@@H](CCCCN)C(=O)N[C@@H](CC(N)=O)C(=O)NC(C)(C)C(=O)N[C@@H](CCC(N)=O)C(=O)N[C@H](C(=O)N[C@@H](CC(C)C)C(=O)N[C@@H](CCC(=O)O)C(=O)N[C@@H](CCC(N)=O)C(=O)N[C@H](C(N)=O)C(C)C)[C@@H](C)CC)[C@@H](C)CC)[C@@H](C)CC)C(C)C)C(C)C
B5: the EC50 [nM] (cAMP) in experiment [1] turned out to be 0.34 nM. For the same molecule, the “Emax (% I)” value in experiment [2] amounted to 5%.

B6: SEQ ID NO 47 (peptide)
peptide: Ac-IVLSLD[dV]PIKLK([γGlu-C16 diacid])KILLEQEKQKKQREQAETNAQILAQV-NH2
SMILES: CC[C@H](C)[C@H](NC(C)=O)C(=O)N[C@H](C(=O)N[C@@H](CC(C)C)C(=O)N[C@@H](CO)C(=O)N[C@@H](CC(C)C)C(=O)N[C@@H](CC(=O)O)C(=O)N[C@@H](C(=O)N1CCC[C@H]1C(=O)N[C@H](C(=O)N[C@@H](CCCCN)C(=O)N[C@@H](CC(C)C)C(=O)N[C@@H](CCCCNC(=O)CC[C@H](NC(=O)CCCCCCCCCCCCCCC(=O)O)C(=O)O)C(=O)N[C@@H](CCCCN)C(=O)N[C@H](C(=O)N[C@@H](CC(C)C)C(=O)N[C@@H](CC(C)C)C(=O)N[C@@H](CCC(=O)O)C(=O)N[C@@H](CCC(N)=O)C(=O)N[C@@H](CCC(=O)O)C(=O)N[C@@H](CCCCN)C(=O)N[C@@H](CCC(N)=O)C(=O)N[C@@H](CCCCN)C(=O)N[C@@H](CCCCN)C(=O)N[C@@H](CCC(N)=O)C(=O)N[C@@H](CCCNC(=N)N)C(=O)N[C@@H](CCC(=O)O)C(=O)N[C@@H](CCC(N)=O)C(=O)N[C@@H](C)C(=O)N[C@@H](CCC(=O)O)C(=O)N[C@H](C(=O)N[C@@H](CC(N)=O)C(=O)N[C@@H](C)C(=O)N[C@@H](CCC(N)=O)C(=O)N[C@H](C(=O)N[C@@H](CC(C)C)C(=O)N[C@@H](C)C(=O)N[C@@H](CCC(N)=O)C(=O)N[C@H](C(N)=O)C(C)C)[C@@H](C)CC)[C@@H](C)O)[C@@H](C)CC)[C@@H](C)CC)C(C)C)C(C)C
Molecule B6 registered an EC50 [nM] (cAMP) in experiment [1] of 0.09 nM. In addition, the “Emax (% I)” value in experiment [2] worked out at 10%.
